In article PMC11102866, “Nucleosome-bound NR5A2 structure reveals pioneer factor mechanism by DNA minor groove anchor competition”:

Key:
NR5A2 D159A [1] = target: T1, NR5A2 D159A (Homo sapiens, UniProt O00482 1-541, D159A); experiment: EMSA; slightly less than wild type, not significant; EMSA: 20 mM Tris-HCl pH 7.5, 120 mM NaCl, 1 mM MgCl2, 10 uM ZnCl2, 1 mM DTT, 100 ug/ml BSA, room temperature, 30 min; 50 nM DNA or nucleosome; conditions: protein: recombinant; tags: N-terminal His6-TEV, His6 removed with TEV protease; blunt
NR5A2 wild type = NR5A2 wild type (Homo sapiens, UniProt O00482 1-541); experiment: EMSA; EMSA: 20 mM Tris-HCl pH 7.5, 120 mM NaCl, 1 mM MgCl2, 10 uM ZnCl2, 1 mM DTT, 100 ug/ml BSA, room temperature, 30 min; 50 nM DNA or nucleosome; conditions: protein: recombinant; tags: N-terminal His6-TEV, His6 removed with TEV protease
NR5A2 D159A [2] = target: T1, NR5A2 D159A; experiment: EMSA; similar to wild type; EMSA: 20 mM Tris-HCl pH 7.5, 120 mM NaCl, 1 mM MgCl2, 10 uM ZnCl2, 1 mM DTT, 100 ug/ml BSA, room temperature, 30 min; 50 nM DNA or nucleosome; conditions: protein: recombinant; tags: N-terminal His6-TEV, His6 removed with TEV protease

B1: 25 bp DNA with Nr5a2 consensus motif (dsDNA)
DNA 1: GAGAGAGTCAAGGCCATGGCTCACT
DNA 2: AGTGAGCCATGGCCTTGACTCTCTC
B1: binds (NR5A2 D159A [1]).

B2: 149 bp endogenous mouse DNA (dsDNA)
DNA 1: GGACTGGGACTTCTAAAACAAGACCTTAGTTAGGTGTGGTGCTGCATGCCTTTAATCTCAGCAGTCTGGAGGCAGAGACAGGGAGGTCTCTATGAGTTCAAGGCCAGCCTAATCTACACAGTGAGTTCCAGGACAGTCAGGGCTATAGA
DNA 2: TCTATAGCCCTGACTGTCCTGGAACTCACTGTGTAGATTAGGCTGGCCTTGAACTCATAGAGACCTCCCTGTCTCTGCCTCCAGACTGCTGAGATTAAAGGCATGCAGCACCACACCTAACTAAGGTCTTGTTTTAGAAGTCCCAGTCC
B2: binds (NR5A2 wild type); binds (NR5A2 D159A [2]).
